Paper PMC8257933

Experiments:
[1] = biological target: NTCP-V5-His G60LXXXA64L/G233LXXXG237L (TMD2/7) double mutant; assay: co-IP (IP anti-FLAG agarose, western blot anti-V5, ImageJ band quantification); settings: HEK293 cells co-transfected with NTCP-FLAG and NTCP-V5-His; n = 3 independent experiments; parent: est. 100; read off a plot
[2] = biological target: NTCP-V5-His G233LXXXG237L (TMD7) mutant; assay: as above; settings: HEK293 cells co-transfected with NTCP-FLAG and NTCP-V5-His; n = 3 independent experiments; parent: est. 100; read off a plot

Substance	percent of parent [1]	percent of parent [2]
NTCP wild type, NTCP-FLAG and NTCP-V5-His expressed in HEK293 cells (from UniProt Q14973) binder (NTCP-FLAG): G60L; A64L; G233L; G237L; target (NTCP-V5): G60L; A64L; G233L; G237L	130 % of control	
NTCP wild type, NTCP-FLAG and NTCP-V5-His expressed in HEK293 cells (from UniProt Q14973) binder (NTCP-FLAG): G60L; A64L; target (NTCP-V5): G233L; G237L		120 % of control
